Data taken from patent US20210388110A1 (published 2021).
Where a chain is given by its changes, count along the chain named.

B1: GCH054-G1dh/none-Hi-Kn010G3/TR01L019-k0 (antibody, human IgG1, kappa)
heavy: not shown
chain: EPKSSDKTHTCPPCPAPELLGGPSVFLFPPKPKDTLMISRTPEVTCVVVDVSHEDPEVKFNWYVDGVEVHNAKTKPREEQYNSTYRVVSVLTVLHQDWLNGKEYKCKVSNKALPAPIEKTISKAKGQPREPQVCTLPPSRDELTKNQVSLWCLVKGFYPSDIAVEWESNGQPENNYKTTPPVLDSDGSFFLYSKLTVDKSRWQQGNVFSCSVMHEALHNRYTQKSLSLSP
light: DIVMTQSPLSLPVTPGEPASISCQASESPVHSNRNTYLHWYLQKPGQSPQLLIYKVSNRFSGVPDRFSGSGSGTDFTLKISRVEAEDVGVYYCYQGTQVPYTFGQGTKLEIKRTVAAPSVFIFPPSDEQLKSGTASVVCLLNNFYPREAKVQWKVDNALQSGNSQESVTEQDSKDSTYSLSSTLTLSKADYEKHKVYACEVTHQGLSSPVTKSFNRGEC
notes: single-arm (one Fab)
B2: GCH060-G1dh/none-Hi-Kn010G3/L0200-k0 (antibody, human IgG1, kappa)
heavy: not shown
chain: B1 chain
light: B1 light with Q24R, A25P, E27Q, L42Q, S48A, Q50R, Y94G
notes: single-arm (one Fab)
B3: GCH066-G1dh/none-Hi-Kn010G3/L0000-k0 (antibody, human IgG1, kappa)
heavy: not shown
chain: B1 chain
light: B1 light with Q24R, A25S, E27Q, P29L, L42Q, S48A, Q50R, Y94G
notes: single-arm (one Fab)
B4: H0610-G1dh/none-Hi-Kn010G3/L0002-k0 (antibody, human IgG1, kappa)
heavy: not shown
chain: B1 chain
light: B1 light with Q24R, E27Q, P29L, L42Q, S48A, Q50R, Y94G
notes: single-arm (one Fab)
B5: GCH099-G1dh/none-Hi-Kn010G3/L0000-k0 (antibody, human IgG1, kappa)
heavy: not shown
chain: B1 chain
light: B1 light with Q24R, A25S, E27Q, P29L, L42Q, S48A, Q50R, Y94G
notes: single-arm (one Fab); printed with a small k in Hi-kn010G3
B6: H0610-G1dh/none-Hi-Kn010G3/L0006-k0 (antibody, human IgG1, kappa)
heavy: not shown
chain: B1 chain
light: B1 light with Q24R, A25P, E27Q, P29L, L42Q, S48A, Q50R, Y94G
notes: single-arm (one Fab)
B7: H0610-G1dh/none-Hi-Kn010G3/L0003-k0 (antibody, human IgG1, kappa)
heavy: not shown
chain: B1 chain
light: B1 light with Q24R, A25I, E27Q, P29L, L42Q, S48A, Q50R, Y94G
notes: single-arm (one Fab)
B8: GCH056-G1dh/none-Hi-Kn010G3/L0215-k0 (antibody, human IgG1, kappa)
heavy: not shown
chain: B1 chain
light: B1 light with Q24R, A25S, E27Q, S28P, L38I, L42Q, S48A, Q50R, Y94G
notes: single-arm (one Fab)
B9: GCH098-G1dh/none-Hi-Kn010G3/L0000-k0 (antibody, human IgG1, kappa)
heavy: not shown
chain: B1 chain
light: B1 light with Q24R, A25S, E27Q, P29L, L42Q, S48A, Q50R, Y94G
notes: single-arm (one Fab)
B10: GCH099-G1dh/none-Hi-Kn010G3/L0201-k0 (antibody, human IgG1, kappa)
heavy: not shown
chain: B1 chain
light: B1 light with Q24R, A25S, E27Q, S28P, L42Q, S48A, Q50R, Y94G
notes: single-arm (one Fab)
B11: GCH065-G1dh/none-Hi-Kn010G3/L0011-k0 (antibody, human IgG1, kappa)
heavy: not shown
chain: B1 chain
light: B1 light with Q24R, A25S, E27Q, S28P, P29L, L42Q, S48A, Q50R, Y94G
notes: single-arm (one Fab)
B12: GCH057-G1dh/none-Hi-Kn010G3/L0215-k0 (antibody, human IgG1, kappa)
heavy: not shown
chain: B1 chain
light: B1 light with Q24R, A25S, E27Q, S28P, L38I, L42Q, S48A, Q50R, Y94G
notes: single-arm (one Fab)
B13: H0610-G1dh/none-Hi-Kn010G3/L0008-k0 (antibody, human IgG1, kappa)
heavy: not shown
chain: B1 chain
light: B1 light with Q24R, A25V, E27Q, P29L, L42Q, S48A, Q50R, Y94G
notes: single-arm (one Fab)
B14: GCH055-G1dh/none-Hi-Kn010G3/L0222-k0 (antibody, human IgG1, kappa)
heavy: not shown
chain: B1 chain
light: B1 light with Q24R, A25S, E27Q, L38I, H39Q, L42Q, S48A, Q50R
notes: single-arm (one Fab)
B15: GCH065-G1dh/none-Hi-Kn010G3/L0000-k0 (antibody, human IgG1, kappa)
heavy: not shown
chain: B1 chain
light: B1 light with Q24R, A25S, E27Q, P29L, L42Q, S48A, Q50R, Y94G
notes: single-arm (one Fab)
B16: GCH055-G1dh/none-Hi-Kn010G3/L0215-k0 (antibody, human IgG1, kappa)
heavy: not shown
chain: B1 chain
light: B1 light with Q24R, A25S, E27Q, S28P, L38I, L42Q, S48A, Q50R, Y94G
notes: single-arm (one Fab)
B17: GCH094-G1dh/none-Hi-Kn010G3/L0201-k0 (antibody, human IgG1, kappa)
heavy: not shown
chain: B1 chain
light: B1 light with Q24R, A25S, E27Q, S28P, L42Q, S48A, Q50R, Y94G
notes: single-arm (one Fab)
B18: GCH094-G1dh/none-Hi-Kn010G3/L0271-k0 (antibody, human IgG1, kappa)
heavy: not shown
chain: B1 chain
light: B1 light with Q24R, A25S, E27Q, S28P, N35Q, L42Q, S48A, Q50R, Y94G
notes: single-arm (one Fab)
B19: GCH056-G1dh/none-Hi-Kn010G3/L0262-k0 (antibody, human IgG1, kappa)
heavy: not shown
chain: B1 chain
light: B1 light with Q24R, A25S, E27Q, S28P, L42Q, S48A, Q50R, Y94A
notes: single-arm (one Fab)
B20: GCH065-G1dh/none-Hi-Kn010G3/L0272-k0 (antibody, human IgG1, kappa)
heavy: not shown
chain: B1 chain
light: B1 light with Q24R, A25S, E27Q, S28P, P29L, N35Q, L42Q, S48A, Q50R, Y94G
notes: single-arm (one Fab)
B21: GCH100-G1dh/none-Hi-Kn010G3/L0011-k0 (antibody, human IgG1, kappa)
heavy: not shown
chain: B1 chain
light: B1 light with Q24R, A25S, E27Q, S28P, P29L, L42Q, S48A, Q50R, Y94G
notes: single-arm (one Fab)
B22: GCH100-G1dh/none-Hi-Kn010G3/L0201-k0 (antibody, human IgG1, kappa)
heavy: not shown
chain: B1 chain
light: B1 light with Q24R, A25S, E27Q, S28P, L42Q, S48A, Q50R, Y94G
notes: single-arm (one Fab)
B23: GCH062-G1dh/none-Hi-Kn010G3/L0000-k0 (antibody, human IgG1, kappa)
heavy: not shown
chain: B1 chain
light: B1 light with Q24R, A25S, E27Q, P29L, L42Q, S48A, Q50R, Y94G
notes: single-arm (one Fab)
B24: GCH073-G1dh/none-Hi-Kn010G3/L0000-k0 (antibody, human IgG1, kappa)
heavy: not shown
chain: B1 chain
light: B1 light with Q24R, A25S, E27Q, P29L, L42Q, S48A, Q50R, Y94G
notes: single-arm (one Fab)
B25: GCH065-G1dh/none-Hi-Kn010G3/L0262-k0 (antibody, human IgG1, kappa)
heavy: not shown
chain: B1 chain
light: B1 light with Q24R, A25S, E27Q, S28P, L42Q, S48A, Q50R, Y94A
notes: single-arm (one Fab)
B26: GCH098-G1dh/none-Hi-Kn010G3/L0011-k0 (antibody, human IgG1, kappa)
heavy: not shown
chain: B1 chain
light: B1 light with Q24R, A25S, E27Q, S28P, P29L, L42Q, S48A, Q50R, Y94G
notes: single-arm (one Fab)
B27: GCH060-G1dh/none-Hi-Kn010G3/L0222-k0 (antibody, human IgG1, kappa)
heavy: not shown
chain: B1 chain
light: B1 light with Q24R, A25S, E27Q, L38I, H39Q, L42Q, S48A, Q50R
notes: single-arm (one Fab)
B28: GCH057-G1dh/none-Hi-Kn010G3/L0222-k0 (antibody, human IgG1, kappa)
heavy: not shown
chain: B1 chain
light: B1 light with Q24R, A25S, E27Q, L38I, H39Q, L42Q, S48A, Q50R
notes: single-arm (one Fab)
B29: GCH064-G1dh/none-Hi-Kn010G3/L0000-k0 (antibody, human IgG1, kappa)
heavy: not shown
chain: B1 chain
light: B1 light with Q24R, A25S, E27Q, P29L, L42Q, S48A, Q50R, Y94G
notes: single-arm (one Fab)
B30: GCH073-G1dh/none-Hi-Kn010G3/L0201-k0 (antibody, human IgG1, kappa)
heavy: not shown
chain: B1 chain
light: B1 light with Q24R, A25S, E27Q, S28P, L42Q, S48A, Q50R, Y94G
notes: single-arm (one Fab)
B31: GCH094-G1dh/none-Hi-Kn010G3/L0270-k0 (antibody, human IgG1, kappa)
heavy: not shown
chain: B1 chain
light: B1 light with Q24R, A25S, E27Q, P29L, N35Q, L42Q, S48A, Q50R, Y94G
notes: single-arm (one Fab)
B32: H0610-G1dh/none-Hi-Kn010G3/L0009-k0 (antibody, human IgG1, kappa)
heavy: not shown
chain: B1 chain
light: B1 light with Q24R, A25S, S26P, E27Q, P29L, L42Q, S48A, Q50R, Y94G
notes: single-arm (one Fab)
B33: GCH094-G1dh/none-Hi-Kn010G3/L0011-k0 (antibody, human IgG1, kappa)
heavy: not shown
chain: B1 chain
light: B1 light with Q24R, A25S, E27Q, S28P, P29L, L42Q, S48A, Q50R, Y94G
notes: single-arm (one Fab)
B34: GCH098-G1dh/none-Hi-Kn010G3/L0201-k0 (antibody, human IgG1, kappa)
heavy: not shown
chain: B1 chain
light: B1 light with Q24R, A25S, E27Q, S28P, L42Q, S48A, Q50R, Y94G
notes: single-arm (one Fab)
B35: H0610-G1dh/none-Hi-Kn010G3/L0011-k0 (antibody, human IgG1, kappa)
heavy: not shown
chain: B1 chain
light: B1 light with Q24R, A25S, E27Q, S28P, P29L, L42Q, S48A, Q50R, Y94G
notes: single-arm (one Fab)
B36: GCH094-G1dh/none-Hi-Kn010G3/L0246-k0 (antibody, human IgG1, kappa)
heavy: not shown
chain: B1 chain
light: B1 light with Q24R, A25S, E27Q, L38I, H39Q, L42Q, S48A, Q50R, Y94S
notes: single-arm (one Fab)
B37: H0610-G1dh/none-Hi-Kn010G3/L0007-k0 (antibody, human IgG1, kappa)
heavy: not shown
chain: B1 chain
light: B1 light with Q24R, A25T, E27Q, P29L, L42Q, S48A, Q50R, Y94G
notes: single-arm (one Fab)
B38: GCH056-G1dh/none-Hi-Kn010G3/L0201-k0 (antibody, human IgG1, kappa)
heavy: not shown
chain: B1 chain
light: B1 light with Q24R, A25S, E27Q, S28P, L42Q, S48A, Q50R, Y94G
notes: single-arm (one Fab)
B39: GCH099-G1dh/none-Hi-Kn010G3/L0011-k0 (antibody, human IgG1, kappa)
heavy: not shown
chain: B1 chain
light: B1 light with Q24R, A25S, E27Q, S28P, P29L, L42Q, S48A, Q50R, Y94G
notes: single-arm (one Fab)
B40: GCH065-G1dh/none-Hi-Kn010G3/L0201-k0 (antibody, human IgG1, kappa)
heavy: not shown
chain: B1 chain
light: B1 light with Q24R, A25S, E27Q, S28P, L42Q, S48A, Q50R, Y94G
notes: single-arm (one Fab)
B41: GCH055-G1dh/none-Hi-Kn010G3/L0200-k0 (antibody, human IgG1, kappa)
heavy: not shown
chain: B1 chain
light: B1 light with Q24R, A25P, E27Q, L42Q, S48A, Q50R, Y94G
notes: single-arm (one Fab)
B42: GCH073-G1dh/none-Hi-Kn010G3/L0011-k0 (antibody, human IgG1, kappa)
heavy: not shown
chain: B1 chain
light: B1 light with Q24R, A25S, E27Q, S28P, P29L, L42Q, S48A, Q50R, Y94G
notes: single-arm (one Fab)
B43: GCH055-G1dh/none-Hi-Kn010G3/L0212-k0 (antibody, human IgG1, kappa)
heavy: not shown
chain: B1 chain
light: B1 light with Q24R, A25P, E27Q, L42Q, S48A, Q50R
notes: single-arm (one Fab)
B44: GCH094-G1dh/none-Hi-Kn010G3/L0272-k0 (antibody, human IgG1, kappa)
heavy: not shown
chain: B1 chain
light: B1 light with Q24R, A25S, E27Q, S28P, P29L, N35Q, L42Q, S48A, Q50R, Y94G
notes: single-arm (one Fab)

Biological target: T1, soluble human GPC3 (human, UniProt P51654 25-563, limits assumed)
T1 construct: soluble human GPC3 as analyte; also called glypican 3
T1 sequence (P51654 other isoform, or with tags, fused parts or gaps limits assumed, form in doubt): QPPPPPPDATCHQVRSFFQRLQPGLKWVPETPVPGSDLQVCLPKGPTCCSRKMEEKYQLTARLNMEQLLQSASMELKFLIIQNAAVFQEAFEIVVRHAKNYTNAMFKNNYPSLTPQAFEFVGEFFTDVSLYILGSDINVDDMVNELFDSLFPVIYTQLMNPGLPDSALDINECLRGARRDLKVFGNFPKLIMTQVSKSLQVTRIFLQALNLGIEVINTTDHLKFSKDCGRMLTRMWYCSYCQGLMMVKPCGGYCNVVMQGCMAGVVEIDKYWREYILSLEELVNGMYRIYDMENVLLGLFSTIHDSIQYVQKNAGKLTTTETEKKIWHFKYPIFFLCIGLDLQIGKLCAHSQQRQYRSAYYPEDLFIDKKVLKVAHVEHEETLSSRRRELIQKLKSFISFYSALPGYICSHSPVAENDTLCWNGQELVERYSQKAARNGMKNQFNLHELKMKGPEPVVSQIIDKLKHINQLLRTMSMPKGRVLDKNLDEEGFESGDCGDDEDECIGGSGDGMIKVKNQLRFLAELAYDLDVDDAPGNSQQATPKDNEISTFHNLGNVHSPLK
Test: SPR (Biacore), soluble human GPC3

Binder	Kd [nM]
B1	0.871
B2	1.34
B3	4.29
B4	4.43
B5	4.24
B6	3.04
B7	4.01
B8	1.59
B9	1.77
B10	1.29
B11	0.884
B12	1.83
B13	3.3
B14	0.0039
B15	1.41
B16	1.52
B17	1.17
B18	0.692
B19	0.0119
B20	0.393
B21	3.81
B22	1.37

Binder	Kd [nM]
B23	3.73
B24	2
B25	0.0118
B26	0.802
B27	0.000642
B28	0.00185
B29	4.14
B30	0.035
B31	3.6
B32	2.99
B33	3.88
B34	0.111
B35	2.76
B36	0.00412
B37	4.39
B38	1.16
B39	2.78
B40	0.0774
B41	1.13
B42	0.91
B43	0.614
B44	2.1
